Experimental data taken from US20220298215A1.

Biological target: glucagon-like peptide 1 (GLP-1) receptor
Experiment: cell-based or functional assay

glucagon-like peptide 1 (GLP-1) receptor, sequence (P43220 24-463): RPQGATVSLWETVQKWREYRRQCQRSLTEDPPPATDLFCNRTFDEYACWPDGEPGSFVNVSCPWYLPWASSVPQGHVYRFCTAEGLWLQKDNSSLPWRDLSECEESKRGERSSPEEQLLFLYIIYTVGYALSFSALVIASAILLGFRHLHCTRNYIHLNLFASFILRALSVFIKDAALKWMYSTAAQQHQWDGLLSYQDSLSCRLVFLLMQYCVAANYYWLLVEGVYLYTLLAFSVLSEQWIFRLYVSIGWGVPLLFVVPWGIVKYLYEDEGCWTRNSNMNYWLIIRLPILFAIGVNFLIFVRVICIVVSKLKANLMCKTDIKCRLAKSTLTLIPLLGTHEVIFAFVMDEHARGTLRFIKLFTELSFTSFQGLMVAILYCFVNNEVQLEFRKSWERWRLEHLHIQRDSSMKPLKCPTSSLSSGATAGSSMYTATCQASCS

EC50, CRE-luciferase reporter in HEK293-GLP1R-CRE-Luc cells: 0.0237 nM
Substance: Dulaglutide (Fc fusion)
